From patent publication EP3766894A1
Positions of bridges follow the written chain, without caps; N, C: chain ends. Non-standard residues stand in square brackets, D forms with d. Primed or numbered codes have the meaning given here. Chains are numbered I, II in the order given. No end group written: not given here. *: point of attachment. Palmitoyl = CCCCCCCCCCCCCCCC(=O)*; hArg = N=C(N)NCCCC[C@H](N)C(=O)O; Nle = CCCC[C@H](N)C(=O)O; PEG2″ = not defined here

Experiments:
[1] = molecular target: human Kallikrein-related peptidase 7 (hKLK7) (human), P49862; experiment: activity assay
[2] = molecular target: human serum albumin (HSA) (human), P02768; experiment: fluorescence polarization

human Kallikrein-related peptidase 7 (hKLK7) (human), P49862, sequence (P49862 30-253 limits assumed): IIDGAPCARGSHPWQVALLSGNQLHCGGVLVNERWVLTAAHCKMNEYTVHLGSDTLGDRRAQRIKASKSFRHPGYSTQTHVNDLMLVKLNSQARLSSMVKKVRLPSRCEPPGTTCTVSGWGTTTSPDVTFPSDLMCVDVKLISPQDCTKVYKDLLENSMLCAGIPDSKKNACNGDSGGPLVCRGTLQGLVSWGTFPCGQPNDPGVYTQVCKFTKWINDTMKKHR

B1: KLK7 inhibitor 278-tag (final KLK7 inhibitor) (peptide)
peptide 1: PCLY[Nle]A[hArg]CGKG
peptide 2: {fluorescein-PEG2″}-EYEK(Palmitoyl)EYE
modifications: bridge I:2-I:8; not fully specified (bridges); also: chain 2 C-terminus joined via PEG2 to Lys side chain of GKG linker
B1 gave a Ki [1] of 7.4 nM and a Kd [2] of 164 nM.
